We go through 1 sequence from publication PMC5150637.

For this data set, the system named is T1, MBP-SphR (Pseudomonas aeruginosa (strain PAO1?)), ORF:ae0b4f1c.
T1 sequence: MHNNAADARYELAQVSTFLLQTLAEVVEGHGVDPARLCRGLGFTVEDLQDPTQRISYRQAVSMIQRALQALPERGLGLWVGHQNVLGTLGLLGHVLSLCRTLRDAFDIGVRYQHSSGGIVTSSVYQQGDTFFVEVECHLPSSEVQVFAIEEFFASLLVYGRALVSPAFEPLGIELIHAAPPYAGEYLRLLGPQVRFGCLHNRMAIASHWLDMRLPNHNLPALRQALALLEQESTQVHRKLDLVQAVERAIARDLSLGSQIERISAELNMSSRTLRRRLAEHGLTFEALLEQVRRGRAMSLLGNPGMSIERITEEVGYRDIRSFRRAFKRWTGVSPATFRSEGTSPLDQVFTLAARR
In words: competition. The following applies: 10 mM Tris-HCl pH 7.5, 50 mM KCl, 1 mM DTT, 1 mM EDTA, 3 mM MgCl2, 50 ug/ml BSA, 4% glycerol, 0.05% NP-40, 50 ng/ul poly(dI-dC), 30 C, 30 min.

As to “GGTTGCCACTGTAGTGCCAGGGTGGTGGAGTCGAGGGGGGCGTAGCGGACAGGAAGGGGGTGAGCGCCGGCCATCCTGCATGGACGGCAAGGCAGGCGGGTAAAAAAAGGCCGCCTGCGT (double strand) [cerN promoter -200 to -81, unlabeled competitor]”, the binding entry was “binds”.
